# According to US20210214447A1 (SHANGHAI INSTITUTE OF MATERIA MEDICA CHINESE ACADEMY OF …, published 2021):
# Read-outs that look alike come from different tables or passages of the source.
# T1: human AXL on the surface of tumor cells (human, UniProt P30530 26-894)
# T1 construct: whole, on cells; endogenous protein of human tumor cell lines; the cell line is named under assay or readout; also called AXL on the cell surface
# T1 sequence (looked up): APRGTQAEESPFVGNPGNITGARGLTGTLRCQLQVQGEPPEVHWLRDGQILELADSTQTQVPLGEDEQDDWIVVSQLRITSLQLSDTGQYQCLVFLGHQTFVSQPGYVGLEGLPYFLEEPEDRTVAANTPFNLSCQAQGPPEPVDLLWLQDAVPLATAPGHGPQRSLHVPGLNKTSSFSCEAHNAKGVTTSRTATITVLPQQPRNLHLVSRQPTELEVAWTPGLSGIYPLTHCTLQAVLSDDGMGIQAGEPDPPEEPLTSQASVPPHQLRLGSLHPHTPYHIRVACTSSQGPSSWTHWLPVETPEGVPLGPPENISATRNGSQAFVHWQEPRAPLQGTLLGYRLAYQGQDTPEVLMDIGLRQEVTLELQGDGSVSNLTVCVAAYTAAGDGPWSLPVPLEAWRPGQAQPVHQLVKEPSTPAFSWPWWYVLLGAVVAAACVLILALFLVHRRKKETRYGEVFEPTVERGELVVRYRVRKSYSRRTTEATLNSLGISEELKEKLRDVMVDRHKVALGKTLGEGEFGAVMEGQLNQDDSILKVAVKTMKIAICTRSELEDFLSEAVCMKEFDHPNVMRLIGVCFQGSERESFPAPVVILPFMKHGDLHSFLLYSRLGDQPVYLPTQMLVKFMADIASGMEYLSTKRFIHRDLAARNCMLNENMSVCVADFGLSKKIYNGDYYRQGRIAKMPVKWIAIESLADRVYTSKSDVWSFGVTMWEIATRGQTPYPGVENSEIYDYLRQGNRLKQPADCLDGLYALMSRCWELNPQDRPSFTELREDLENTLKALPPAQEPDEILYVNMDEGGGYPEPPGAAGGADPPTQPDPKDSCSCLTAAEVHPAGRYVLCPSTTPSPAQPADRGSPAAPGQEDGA
# T2: extracellular domain of human AXL protein (AXL-ECD) (human, UniProt P30530 31-449)
# T2 construct: expressed in HEK293T cells; coated on the ELISA plate; also called AXL-ECD protein; human AXL extracellular domain protein
# T2 sequence: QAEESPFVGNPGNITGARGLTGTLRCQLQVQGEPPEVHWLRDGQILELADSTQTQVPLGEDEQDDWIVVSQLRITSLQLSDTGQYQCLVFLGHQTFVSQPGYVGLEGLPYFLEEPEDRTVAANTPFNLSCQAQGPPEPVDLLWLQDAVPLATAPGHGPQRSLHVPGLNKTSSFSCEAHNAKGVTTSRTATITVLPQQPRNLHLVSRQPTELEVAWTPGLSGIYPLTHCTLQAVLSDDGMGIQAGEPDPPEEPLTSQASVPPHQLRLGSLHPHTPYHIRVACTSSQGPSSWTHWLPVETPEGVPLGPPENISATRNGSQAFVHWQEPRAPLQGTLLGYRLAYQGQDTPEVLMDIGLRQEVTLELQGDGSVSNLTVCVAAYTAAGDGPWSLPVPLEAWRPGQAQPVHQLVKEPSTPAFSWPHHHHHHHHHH
# Assays:
# [1] = molecular target: T1, human AXL on the surface of tumor cells; test: FACS on MDA-MB-231 cells
# Description: (§1) Then the obtained solutions were incubated at 4° C. for 1 h, the cells were washed twice with PBS to remove unbound primary antibody, and then the target cells were incubated with 200 μL PE-labeled secondary antibody (2 μg/mL) at 4° C. for 30 min. The cells were washed twice with PBS to remove unbound secondary antibody. Finally, the cells were resuspended in 200 μL PBS, and the binding affinity of the test antibody to AXL on the cell surface was determined by a flow cytometer (FACSCalibur)
# 24 humanized antibodies in Table-6 were diluted by gradient, and their affinities to AXL, on the surface of MDA-MB-231 cells were determined by flow cytometer. The experimental method was referred to Example 8.
# [2] = molecular target: T1, human AXL on the surface of tumor cells; test: FACS on LCLC-103H cells
# Description: as §1
# The experimental method was referred to Example 8.
# [3] = molecular target: T2, extracellular domain of human AXL …; test: ELISA, plate-coated AXL-ECD
# Description: (§2) The extracellular domain of AXL protein (AXL-ECD) was diluted to […] with the coating solution, and coated onto ELISA plate with 100 μL/well at 4° C. overnight. The excess antigen was washed off. The plate was blocked with 1% BSA at room temperature for 2 h, then each monoclonal antibody in a 3-fold dilution was added at 100 µL/well. The plate was incubated at room temperature for 1 h; the unbound antibody was washed off, and appropriate concentration of anti-mouse secondary antibody labeled with horseradish peroxidase was added at 100 µL/well. The plate was incubated at room temperature for 0.5 h. The unbound secondary antibody was washed off. TMB Substrate was added and reacted for about 15 minutes. 1N HCL was added at 50 µL/well to stop the color reaction. Then the absorbance was measured at 450 nm and the obtained data was analyzed.
# 24 humanized antibodies in Table-6 were diluted by gradient, and their affinity to AXL-ECD protein was determined by ELISA. The experimental method was referred to Example 4.
# [4] = molecular target: T3, cynomolgus monkey AXL on the surface of HEK-293T cells (cynomolgus monkey); test: FACS on HEK293T cells transiently expressing monkey AXL
# T3 construct: transiently expressed in HEK293T cells from pcDNA3.1
# Description: 3. HEK293T cells were spread to a 50% density in a culture dish, and cultured overnight at 37° C. to a confluence of about 80%. […] of monkey/mouse-AXL vector plasmid prepared above was transiently transfected into the cells with Liposome Lipo2000 (Invitrogen). 24 hours after transfection, the proteins were collected for Western blot analysis, and the cells were collected for FACS to detect the binding activity of Hu002-2 and monkey/mouse AXL on HEK293T cell surface. The FACS detection test method may be referred to Example 18.
# [5] = molecular target: T2, extracellular domain of human AXL …; test: ELISA, AXL-ECD
# [6] = molecular target: T1, human AXL on the surface of tumor cells; test: FACS on MDA-MB-231 cells, mean EC50
# Description: as §1
# [7] = molecular target: T1, human AXL on the surface of tumor cells; test: FACS on MDA-MB-231 cells; remark: listed apart in the source
# Description: as §1
# [8] = molecular target: T2, extracellular domain of human AXL …; test: ELISA, plate-coated AXL-ECD; remark: listed apart in the source
# Description: as §2
# [9] = molecular target: T1, human AXL on the surface of tumor cells; test: FACS on NCI-H1299 cells
# Description: as §1
# AXL-high-expression lung cancer cells NCI-H1299 were used as target cells. 100 μL of the test antibody diluted in a 3-fold gradient was used as primary antibody, and mixed with 1×10⁵ NCI-H1299 cells suspended in 100 μL RPMI-1640 serum-free medium. The operation method was the same as above. Finally, the cells were resuspended in 200 μL PBS, and the binding affinity of the tested antibody to AXL on the cell surface was determined by a flow cytometer (FACSAria II).
EC50 [1],Highest MFI value (FACSCalibur) [1],EC50 [2],EC50 [3],TOP (OD450) [3],EC50 [5],EC50 [6],Highest MFI value (FACSCalibur) [7],EC50 [8],Highest reading (OD450 nm) [8],EC50 [9],Highest MFI value (FACSAria II) [9],Binder,other results
,,,,,0.092 nM,,,,,,,"mAb005 (antibody, V domains shown, murine hybridoma antibody, IgG1/k; also called original murine antibody mAb005) VH: QVQLQQSGPELVKPGASVKISCKASGYSFTSYYIHWVQQRPGQGLEWIGWIYPGSDNTKYNEKFKDKATLTADTSSGTAYMQLSSLTSDDSAVFYCARNYYDYDGGTWFPYWGQGTLVTVSA VL: DIQMTQTTSSLSASLGDRVTISCRASQDINYYLNWYQQKPDGTVKLLIYYTSRLHSRVPSRFSGSGSGTDYSLTISNLEQEDIATYFCQQGNTLPWTFGGGTKLEIK",
,,,,,0.073 nM,,,,,,,"mAb001 (antibody, V domains shown, murine hybridoma antibody, IgG1/k; also called original murine antibody mAb001) VH: AVQLQESGPSLVKPSQTLSLTCSVTGDSITSGYWSWIRKFPGNKLESMGYMTYSGATYYNPSLKSRISITRDTSKNQYYLQLNSVTPEDTATYYCARGGNSYFFDYWGQGTTLTVSS VL: DIQMTQSPASLSVSVGETVTITCRASENIYSNLAWYQLKQGKSPHLLVYAATNLADGVPSRFSGSGSGTQYSLKIISLQSEDFGTYYCQHFWGTPLTFGAGTKLELK",
,,,,,,0.84 nM,217 MFI,0.092 nM,3.8 OD450 nm,1.49 nM,2370 MFI,"mAb001c (antibody, V domains shown, also called human-mouse chimeric antibody mAb001c) VH: AVQLQESGPSLVKPSQTLSLTCSVTGDSITSGYWSWIRKFPGNKLESMGYMTYSGATYYNPSLKSRISITRDTSKNQYYLQLNSVTPEDTATYYCARGGNSYFFDYWGQGTTLTVSS VL: DIQMTQSPASLSVSVGETVTITCRASENIYSNLAWYQLKQGKSPHLLVYAATNLADGVPSRFSGSGSGTQYSLKIISLQSEDFGTYYCQHFWGTPLTFGAGTKLELK",

# Continued, binder first:
Binder,EC50 [1],Highest MFI value (FACSCalibur) [1],EC50 [2],EC50 [3],TOP (OD450) [3],EC50 [5],EC50 [6],Highest MFI value (FACSCalibur) [7],EC50 [8],Highest reading (OD450 nm) [8],EC50 [9],Highest MFI value (FACSAria II) [9],other results
"Hu002-1 (antibody, V domains shown, humanized from mAb002c; also called Hu002c-1) VH: QVQLVQSGAEVKKPGASVKVSCKASGYPFTDFYINWVRQAPGQGLEWMGWIYPGSGNTKYNEKFKGRVTMTRDTSISTAYMELSRLRSDDTAVYYCARSTGFFDYWGQGTLVTVSS VL: EIVLTQSPATLSLSPGERATLSCSASSSIGYMYWYQQKPGQAPRLLIYLTSNLASGIPARFSGSGSGTDFTLTISSLEPEDFAVYYCQQWSSNPPTFGQGTKLEIK",0.101 nM,277 MFI,0.28 nM,0.07 nM,3.62 OD450,,,,,,,,
"Hu002-4 (antibody, V domains shown, humanized from mAb002c; also called Hu002c-4) VH: QVQLVQSGAEVKKPGASVKVSCKASGYPFTDFYINWVRQAPGQGLEWMGWIYPGSGNTKYNEKFKGRVTMTRDTSISTAYMELSRLRSDDTAVYYCARSTGFFDYWGQGTLVTVSS VL: EIVLTQSPATLSLSPGERATLSCSASSSIGYMYWYQQKPGQAPRLLIYLTSNLASGIPARFSGSGSGTDYTLTISSLEPEDFAVYYCQQWSSNPPTFGQGTKLEIK",0.09 nM,277 MFI,0.49 nM,0.055 nM,3.6 OD450,,,,,,,,
"Hu002-2 (antibody, V domains shown, humanized from mAb002c; also called Hu002c-2) VH: QVQLVQSGAEVKKPGASVKVSCKASGYPFTDFYINWVRQAPGQGLEWMGWIYPGSGNTKYNEKFKGRVTLTVDTSISTAYMELSRLRSDDTAVYYCARSTGFFDYWGQGTLVTVSS VL: EIVLTQSPATLSLSPGERATLSCSASSSIGYMYWYQQKPGQAPRLLIYLTSNLASGIPARFSGSGSGTDFTLTISSLEPEDFAVYYCQQWSSNPPTFGQGTKLEIK",0.112 nM,278 MFI,0.37 nM,0.055 nM,3.6 OD450,,,,,,,,EC50 [4]: 0.135 nM
"mAb005c (antibody, V domains shown, also called human-mouse chimeric antibody mAb005c) VH: QVQLQQSGPELVKPGASVKISCKASGYSFTSYYIHWVQQRPGQGLEWIGWIYPGSDNTKYNEKFKDKATLTADTSSGTAYMQLSSLTSDDSAVFYCARNYYDYDGGTWFPYWGQGTLVTVSA VL: DIQMTQTTSSLSASLGDRVTISCRASQDINYYLNWYQQKPDGTVKLLIYYTSRLHSRVPSRFSGSGSGTDYSLTISNLEQEDIATYFCQQGNTLPWTFGGGTKLEIK",,,,,,,0.4 nM,208 MFI,0.103 nM,3.78 OD450 nm,0.908 nM,2140 MFI,
"AXL107 (antibody, V domains shown, also called control antibody AXL107; AXL07) VH: EVQLLESGGGLVQPGGSLRLSCAASGFTFSSYAMNWVRQAPGKGLEWVSTTSGSGASTYYADSVKGRFTISRDNSKNTLYLQMNSLRAEDTAVYYCAKIWIAFDIWGQGTMVTV VL: not shown",,,0.8 nM,,,,0.433 nM,218 MFI,0.075 nM,3.77 OD450 nm,0.655 nM,2010 MFI,
"mAb002 (antibody, V domains shown, murine hybridoma antibody, IgG1/k; also called original murine antibody mAb002) VH: QIQLQQSGPELVKPGASVKISCKASGYPFTDFYINWVKQKPGQGLEWIGWIYPGSGNTKYNEKFKGKATLTVDTSSSTAYMQLSSLTSEDTAVYFCARSTGFFDYWGQGTTLTVSS VL: QIVLTQSPALMSASPGEKVTMTCSASSSIGYMYWYQQKPRSSPKSWIYLTSNLASGVPARFSGSGSGTSYSLTISSMEAEDAATYYCQQWSSNPPTFGAGTKLELK",,,,,,0.063 nM,,,,,,,
